Consider one molecule from patent US20260227403A1.

Assay [1] addresses peptide P40 and peptide P38. In words: ELISA, 1 µg truncated peptide per well, 20 ng/mL mAb. (ELISA stands for enzyme-linked immunosorbent assay.)
Assay [2] addresses peptides with further truncation from the N-terminus and C-terminus (beyond P40 and P38). The assay is described as above.

B1: ETV1 rabbit monoclonal antibody (29E4) (antibody, V domains shown)
VH: QELEESGGDLVKPGASLTLTCTASGFFFSAENHICWVRQAPGKGLEWIGCVYIGSYVGGSGDPYYASWAKGRFTISKTSSTTVTLQMSSLTAADTATYFCARDLGSLWGPGTLVTVSS
VL: DVVMTQTASSVSAAVGGTVTIACQSSQSVYDNNNLAWFQQKPGQPPKRLIYSASTLASGVSSRFKGSGYGTQFTLTISDVQCDDAATYYCVGAFSGYIFVFGGGTEVVVK
As to B1, the binding efficiency in comparison to the full-length immunogenic peptide P1 (%) was 80 to 100% in assay [1] and 75% in assay [2].
